Consider five proteins from paper doi:10.1101/2024.08.16.608256 (bioRxiv, 2024).

For orientation: stoichiometry N means the number of molecules, sites or subunits per partner or assembly.

The data set deals with the molecule itself. In words: SDS-resistant dimer on SDS-PAGE with western blot.

B1: ΔN(12)-YqjD (domain or fragment, E. coli, UniProt P64581 13-101, looked up)
chain: ELKSLSDTLEEVLSSSGEKSKEELSKIRSKAEQALKQSRYRLGETGDAIAKQTRVAAARADEYVRENPWTGVGIGAAIGVVLGVLLSRR
Consider B1, for which the binding result is “binds”.

B2: YqjD (wild type, full-length, N-terminal Xpress-His6-tag) (natural protein, E. coli, UniProt P64581 1-101, looked up)
chain: MSKEHTTEHLRAELKSLSDTLEEVLSSSGEKSKEELSKIRSKAEQALKQSRYRLGETGDAIAKQTRVAAARADEYVRENPWTGVGIGAAIGVVLGVLLSRR
In the case of B2, the “stoichiometry N” value turned out to be 2.

B3: ΔN(30)-YqjD (domain or fragment, E. coli, UniProt P64581 31-101, looked up)
chain: KSKEELSKIRSKAEQALKQSRYRLGETGDAIAKQTRVAAARADEYVRENPWTGVGIGAAIGVVLGVLLSRR
For the protein B3, the binding result was “binds”.

B4: ΔN(45)-YqjD (domain or fragment, E. coli, UniProt P64581 46-101, looked up)
chain: ALKQSRYRLGETGDAIAKQTRVAAARADEYVRENPWTGVGIGAAIGVVLGVLLSRR
As for B4, the binding result was “binds”.

B5: ΔN(60)-YqjD (domain or fragment, E. coli, UniProt P64581 61-101, looked up)
chain: IAKQTRVAAARADEYVRENPWTGVGIGAAIGVVLGVLLSRR
For the protein B5, the binding result was “binds”.
